# Results published in article PMC10405735 (Frontiers in Immunology, 2023).
# B1: murine GPR182 (mGPR182), expressed from mGPR182 T2A GFP in 300.19 pre-B cells (receptor, mouse, UniProt P43142 1-398, looked up)
# chain: MSVIPSPRPVSTLEPDNDFRDIHNWTELLHLFNQTFTDCHIEFNENTKHVVLFVFYLAIFVVGLVENVLVICVNCRRSGRVGMLNLYILNMAIADLGIILSLPVWMLEVMLEYTWLWGSFSCRFIHYFYLVNMYSSIFFLTCLSIDRYVTLTNTSPSWQRHQHRIRRAVCAGVWVLSAIIPLPEVVHIQLLDGSEPMCLFLAPFETYSAWALAVALSATILGFLLPFLLIAVFNILTACRLRRQRQTESRRHCLLMWAYIVVFAICWLPYQVTMLLLTLHGTHIFLHCHLVNLLYFFYEIIDCFSMLHCVANPILYNFLSPSFRGRLLSLVVRYLPKEQARAAGGRASSSSSTQHSIIITKEGSLPAAADLHTHPIRNVQASSPPPNTSPTLCNSVAS
# notes: GPR182, mouse; Expressed fused via a self-cleaving T2A peptide to GFP (backbone pME-Cas9-T2A-GFP, Addgene 63155); receptor and GFP are split post-translationally; also called ACKR5 (proposed); source: 300.19 mouse pre-B cells, stably transfected, on cells
# What was measured:
# Conditions in all cases: one partner purified
# hCXCL12, unlabeled = biological target: T1, hCXCL12, unlabeled (human, UniProt P48061 22-93); assay: flow cytometry on cells; competition binding at 4°C: 300.19 cells expressing mGPR182 or hGPR182 with 3 nM fluorescent chemokine and increasing concentrations of its unlabeled counterpart, 45 min
# T1 construct: CXCL12, human; also called X12
# [1] = biological target: B1; assay: as above
# [2] = biological target: T2, human GPR182 (hGPR182), expressed from hGPR182 T2A GFP in 300.19 pre-B cells (human, UniProt O15218 1-404); assay: flow cytometry on cells; competition scavenging at 37°C: 300.19 cells expressing mGPR182 or hGPR182 with 3 nM fluorescent chemokine and increasing concentrations of its unlabeled counterpart, 45 min
# T2 construct: GPR182, human; Expressed fused via a self-cleaving T2A peptide to GFP (backbone pME-Cas9-T2A-GFP, Addgene 63155); split post-translationally; also called ACKR5 (proposed); source: 300.19 mouse pre-B cells, stably transfected, on cells
# [3] = biological target: T2, human GPR182 (hGPR182), expressed from …; assay: flow cytometry on cells; competition binding at 4°C: 300.19 cells expressing mGPR182 or hGPR182 with 3 nM fluorescent chemokine and increasing concentrations of its unlabeled counterpart, 45 min
# [4] = biological target: B1; assay: flow cytometry on cells; competition scavenging at 37°C: 300.19 cells expressing mGPR182 or hGPR182 with 3 nM fluorescent chemokine and increasing concentrations of its unlabeled counterpart, 45 min
# [5] = biological target: B1; assay: flow cytometry on cells; direct binding: 300.19 cells expressing GPR182 T2A GFP with increasing concentrations of fluorescently labelled chemokine, 45 min; temperature not stated for this experiment
Binder,"Kd (hCXCL12, unlabeled) [nM]",Kd [1] [nM],Kd (competition scavenging) [2] [nM],Kd [3] [nM],Kd (competition scavenging) [4] [nM],Kd [5] [nM]
B1,120,,,,,
"mCCL20, unlabeled (ligand, mouse, UniProt O89093 28-97, looked up, CCL20, mouse) ASNYDCCLSYIQTPLPSRAIVGFTRQMADEACDINAIIFHTKKRKSVCADPKQNWVKRAVNLLSLRVKKM",,120,,,,
"hCCL19, unlabeled (ligand, human, UniProt Q99731 22-98, looked up, CCL19, human) GTNDAEDCCLSVTQKPIPGYIVRNFHYLLIKDGCRVPAVVFTTLRGRQLCAPPDQPWVERIIQRLQRTSAKMKRRSS",,,75,55,,
"hCXCL13, unlabeled (ligand, human, UniProt O43927 23-109, looked up, CXCL13, human) VLEVYYTSLRCRCVQESSVFIPRRFIDRIQILPRGNGCPRKEIIVWKKNKSIVCVDPQAEWIQRMMEVLRKRSSSTLPVPVFKRKIP",,20,9,20,13,
"mCCL19, unlabeled (ligand, mouse, UniProt O70460 26-108, looked up, CCL19, mouse) GANDAEDCCLSVTQRPIPGNIVKAFRYLLNEDGCRVPAVVFTTLRGYQLCAPPDQPWVDRIIRRLKKSSAKNKGNSTRRSPVS",,180,,,250,
"mCCL28, fluorescently labelled (ligand, mouse, UniProt Q9JIL2 17-130, looked up, fluorescent label (AF647 or Dy649), site not stated, CCL28, mouse; also called CCL28-AF647; mCCL28-AF647) FQTSEAILPMASSCCTEVSHHVSGRLLERVSSCSIQRADGDCDLAAVILHVKRRRICISPHNRTLKQWMRASEVKKNGRENVCSGKKQPSRKDRKGHTTRKHRTRGTHRHEASR",,,,,,~8.5
"mCCL28, unlabeled (ligand, mouse, UniProt Q9JIL2 17-130, looked up, CCL28, mouse) FQTSEAILPMASSCCTEVSHHVSGRLLERVSSCSIQRADGDCDLAAVILHVKRRRICISPHNRTLKQWMRASEVKKNGRENVCSGKKQPSRKDRKGHTTRKHRTRGTHRHEASR",,10,52,28,14,
